Results published in CN106467574A (UNIV FUDAN, dated 2017).

How the values were obtained:
[1] = target: T1, 鼠源TF (mouse tissue factor on B16-F10 cells) (mouse, UniProt P20352 29-294); test: flow cytometry on B16-F10 cells
T1 construct: whole, on cells
T1 sequence (looked up): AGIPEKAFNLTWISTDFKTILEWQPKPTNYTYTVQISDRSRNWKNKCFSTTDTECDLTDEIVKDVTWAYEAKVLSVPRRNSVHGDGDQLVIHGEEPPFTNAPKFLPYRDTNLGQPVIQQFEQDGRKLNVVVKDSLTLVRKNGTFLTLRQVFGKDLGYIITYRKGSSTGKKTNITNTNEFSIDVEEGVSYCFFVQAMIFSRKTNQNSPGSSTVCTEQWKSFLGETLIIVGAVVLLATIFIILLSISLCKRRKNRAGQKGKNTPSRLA

[2] = target: 人源TF, 细胞表面TF (human tissue factor on the surface of human tumour cells) (human, UniProt P13726 33-295); test: cell-based or functional assay

B1: TF-mAb-SC1 (antibody, IgG2b, V domains shown)
VH: QVQLQQPGAELVRPGASVKLSCKASGYSFISYWMNWVKQRPGQGLEWIGMIYPADSETRLNQKFKDKATLTVDKSSSTAYMQLSSPTSEDSAVYYCAREDYGSSDYWGQGTTLTVSS
VL: EILLTQSPAIIAASPGEKVTITCSASSSVSYMNWYLQKPGSSPKIWIYGISNLASGVPARFSGSGSGTSFSFTINSMETEDVATYYCQQKSSFPWTFGGGTKLEIK
notes: Mouse monoclonal antibody from a hybridoma, purified from ascites
With B1 the binding result [1] was “no binding (tested: 10μg/mL)”, the “抗FXa生成活性 IC50 (BxPC-3 cells)” value [2] was 9 nM and the “抗FXa生成活性 IC50 (MDA-MB-231 cells)” value [2] was 6.4 nM.
